125 sequences from the supplement of paper PMC9112550, “Optimization of the antimicrobial peptide Bac7 by deep mutational scanning” (BMC Biology, 2022) can be followed below.
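Note: peptides expressed intracellularly from a pBAD plasmid library in pooled LB shake-flask culture, induced with 0.3% L-arabinose, DNA abundance read by NGS, three biological replicates, DESeq2 with apeglm shrinkage.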

For this data set, the system named is Escherichia coli TOP10. Put plainly: shrunken log2 fold change of peptide-encoding DNA abundance (4.5 h post-induction vs induction); higher = less antimicrobial activity (less host growth inhibition). As to conditions: time post-induction: 4.5 h; library: site-saturation at positions 5, 18, 19, 20.
Consider RRIRPRPPRLPRPRPRPRDKPRP, for which the “shrunken log2 fold change” value was 0.144.

For RRIRSRPPRLPRPRPRPCHIPRP, the “shrunken log2 fold change” value is -0.872.

In the case of RRIRARPPRLPRPRPRPQRDPRP, the “shrunken log2 fold change” value is 0.225.

For RRIRYRPPRLPRPRPRPYNYPRP, the “shrunken log2 fold change” value is -1.3.

Regarding RRIRVRPPRLPRPRPRPEFYPRP, the “shrunken log2 fold change” value was -0.251.

With RRIRHRPPRLPRPRPRPFNNPRP, the “shrunken log2 fold change” value is -0.159.

As to RRIRRRPPRLPRPRPRPWHYPRP, the “shrunken log2 fold change” value is -0.0356.

For the sequence RRIRDRPPRLPRPRPRPTQDPRP, the “shrunken log2 fold change” value came to 1.27.

Turning to RRIRVRPPRLPRPRPRPAPRPRP, the “shrunken log2 fold change” value was 0.634.

Consider RRIRKRPPRLPRPRPRPGCMPRP, for which the “shrunken log2 fold change” value is 0.993.

Take RRIRQRPPRLPRPRPRPCHNPRP: the “shrunken log2 fold change” value is -0.0554.

As to RRIRMRPPRLPRPRPRPNVCPRP, the “shrunken log2 fold change” value is -0.00865.

Take RRIRFRPPRLPRPRPRPVDIPRP: the “shrunken log2 fold change” value was -0.338.

In the case of RRIRNRPPRLPRPRPRPVPLPRP, the “shrunken log2 fold change” value is -0.539.

Take RRIRPRPPRLPRPRPRPTCWPRP: the “shrunken log2 fold change” value came out at 0.349.

As to RRIRCRPPRLPRPRPRPDTRPRP, the “shrunken log2 fold change” value was -0.0118.

Consider RRIRRRPPRLPRPRPRPHGKPRP, for which the “shrunken log2 fold change” value amounted to 0.0359.

Take RRIRYRPPRLPRPRPRPFCCPRP: the “shrunken log2 fold change” value is -0.509.

For RRIRWRPPRLPRPRPRPIQFPRP, the “shrunken log2 fold change” value was -0.0539.

On to RRIRIRPPRLPRPRPRPDSTPRP, for which the “shrunken log2 fold change” value was determined as 0.00478.

As to RRIRHRPPRLPRPRPRPLEFPRP, the “shrunken log2 fold change” value turned out to be 0.0369.

RRIRNRPPRLPRPRPRPKCGPRP: the “shrunken log2 fold change” value is -0.0686.

Regarding RRIRMRPPRLPRPRPRPKCKPRP, the “shrunken log2 fold change” value was 0.365.

Take RRIRARPPRLPRPRPRPQQGPRP: the “shrunken log2 fold change” value was -0.0917.

Take RRIRPRPPRLPRPRPRPAIKPRP: the “shrunken log2 fold change” value is -0.339.

Regarding RRIRGRPPRLPRPRPRPLNCPRP, the “shrunken log2 fold change” value is -0.0116.

Take RRIRVRPPRLPRPRPRPKEMPRP: the “shrunken log2 fold change” value is -0.131.

Regarding RRIRYRPPRLPRPRPRPEFPPRP, the “shrunken log2 fold change” value came to 0.011.

For the sequence RRIRYRPPRLPRPRPRPMKVPRP, the “shrunken log2 fold change” value amounted to 0.0135.

RRIRRRPPRLPRPRPRPVTWPRP: the “shrunken log2 fold change” value amounted to 0.182.

Consider RRIRCRPPRLPRPRPRPTCKPRP, for which the “shrunken log2 fold change” value was -0.184.

As to RRIRMRPPRLPRPRPRPIWWPRP, the “shrunken log2 fold change” value was found to be 0.124.

Regarding RRIRRRPPRLPRPRPRPCLWPRP, the “shrunken log2 fold change” value amounted to 0.407.

As to RRIRHRPPRLPRPRPRPDQQPRP, the “shrunken log2 fold change” value is 0.0104.

On to RRIRIRPPRLPRPRPRPFYQPRP, for which the “shrunken log2 fold change” value amounted to 0.234.

As for RRIRLRPPRLPRPRPRPHSEPRP, the “shrunken log2 fold change” value is -0.431.

RRIRNRPPRLPRPRPRPKQQPRP: the “shrunken log2 fold change” value was 0.163.

Turning to RRIRVRPPRLPRPRPRPLRWPRP, the “shrunken log2 fold change” value came to 0.63.

With RRIRFRPPRLPRPRPRPRHAPRP, the “shrunken log2 fold change” value was 0.389.

As to RRIRFRPPRLPRPRPRPPHKPRP, the “shrunken log2 fold change” value is -0.027.

RRIRLRPPRLPRPRPRPIYIPRP: the “shrunken log2 fold change” value is -1.1.

On to RRIRLRPPRLPRPRPRPHGAPRP, for which the “shrunken log2 fold change” value is 0.0606.

RRIRCRPPRLPRPRPRPWCKPRP: the “shrunken log2 fold change” value was 0.145.

Take RRIRVRPPRLPRPRPRPLCSPRP: the “shrunken log2 fold change” value is -0.0335.

Consider RRIRYRPPRLPRPRPRPWRWPRP, for which the “shrunken log2 fold change” value is -0.036.

Consider RRIRHRPPRLPRPRPRPCTGPRP, for which the “shrunken log2 fold change” value stood at 0.00233.

As for RRIRMRPPRLPRPRPRPWEQPRP, the “shrunken log2 fold change” value was 0.0405.

Consider RRIRYRPPRLPRPRPRPKHKPRP, for which the “shrunken log2 fold change” value is -0.545.

On to RRIRLRPPRLPRPRPRPWPWPRP, for which the “shrunken log2 fold change” value is 0.0352.

Take RRIRHRPPRLPRPRPRPAEEPRP: the “shrunken log2 fold change” value came to 0.175.

For RRIRWRPPRLPRPRPRPLARPRP, the “shrunken log2 fold change” value came to 0.432.

Regarding RRIRLRPPRLPRPRPRPWMSPRP, the “shrunken log2 fold change” value was -0.55.

In the case of RRIRNRPPRLPRPRPRPMMYPRP, the “shrunken log2 fold change” value came out at 0.025.

In the case of RRIRARPPRLPRPRPRPRKNPRP, the “shrunken log2 fold change” value is 0.472.

With RRIRLRPPRLPRPRPRPRIAPRP, the “shrunken log2 fold change” value is 0.317.

For the sequence RRIRPRPPRLPRPRPRPLRRPRP, the “shrunken log2 fold change” value worked out at 0.805.

For RRIRKRPPRLPRPRPRPSVTPRP, the “shrunken log2 fold change” value is -0.0473.

For RRIRHRPPRLPRPRPRPHIRPRP, the “shrunken log2 fold change” value is -0.0193.

In the case of RRIRMRPPRLPRPRPRPWYSPRP, the “shrunken log2 fold change” value is -0.427.

As for RRIRHRPPRLPRPRPRPSMCPRP, the “shrunken log2 fold change” value is -0.448.

Turning to RRIRMRPPRLPRPRPRPTACPRP, the “shrunken log2 fold change” value is 1.02.

In the case of RRIRQRPPRLPRPRPRPVEKPRP, the “shrunken log2 fold change” value stood at 0.0119.

With RRIRWRPPRLPRPRPRPHSSPRP, the “shrunken log2 fold change” value is -0.0864.

Take RRIRQRPPRLPRPRPRPSYLPRP: the “shrunken log2 fold change” value was -0.482.

Consider RRIRSRPPRLPRPRPRPYRQPRP, for which the “shrunken log2 fold change” value was -0.402.

Regarding RRIRIRPPRLPRPRPRPWAGPRP, the “shrunken log2 fold change” value is -0.291.

For the sequence RRIRMRPPRLPRPRPRPGMSPRP, the “shrunken log2 fold change” value is -0.0593.

As for RRIRCRPPRLPRPRPRPQGFPRP, the “shrunken log2 fold change” value is -0.0235.

Regarding RRIRDRPPRLPRPRPRPIQKPRP, the “shrunken log2 fold change” value is -0.0081.

Consider RRIRQRPPRLPRPRPRPAWEPRP, for which the “shrunken log2 fold change” value is 0.245.

For RRIRFRPPRLPRPRPRPWCWPRP, the “shrunken log2 fold change” value was found to be 0.155.

With RRIRYRPPRLPRPRPRPFLMPRP, the “shrunken log2 fold change” value was -0.922.

As for RRIRNRPPRLPRPRPRPKQNPRP, the “shrunken log2 fold change” value is 0.0598.

On to RRIRLRPPRLPRPRPRPLLNPRP, for which the “shrunken log2 fold change” value is -0.468.

Consider RRIRPRPPRLPRPRPRPVLDPRP, for which the “shrunken log2 fold change” value is -0.304.

With RRIRTRPPRLPRPRPRPRACPRP, the “shrunken log2 fold change” value stood at 0.608.

Consider RRIRIRPPRLPRPRPRPRNHPRP, for which the “shrunken log2 fold change” value was -0.354.

For RRIRPRPPRLPRPRPRPDDKPRP, the “shrunken log2 fold change” value is -0.0729.

In the case of RRIRIRPPRLPRPRPRPAQFPRP, the “shrunken log2 fold change” value was 0.0396.

As for RRIRCRPPRLPRPRPRPLTWPRP, the “shrunken log2 fold change” value is -0.16.

As to RRIRKRPPRLPRPRPRPLTDPRP, the “shrunken log2 fold change” value is -0.0168.

Consider RRIRTRPPRLPRPRPRPGAGPRP, for which the “shrunken log2 fold change” value is 0.286.

Take RRIRPRPPRLPRPRPRPMYLPRP: the “shrunken log2 fold change” value is -0.257.

With RRIRKRPPRLPRPRPRPCAKPRP, the “shrunken log2 fold change” value amounted to 0.54.

Turning to RRIRRRPPRLPRPRPRPLSHPRP, the “shrunken log2 fold change” value stood at 0.0117.

Take RRIRNRPPRLPRPRPRPKGSPRP: the “shrunken log2 fold change” value is -0.0293.

Take RRIRWRPPRLPRPRPRPTARPRP: the “shrunken log2 fold change” value was found to be 0.0278.

Turning to RRIRARPPRLPRPRPRPVSRPRP, the “shrunken log2 fold change” value came out at 0.661.

On to RRIRVRPPRLPRPRPRPNGVPRP, for which the “shrunken log2 fold change” value is -0.154.

As to RRIRKRPPRLPRPRPRPGIAPRP, the “shrunken log2 fold change” value was found to be 1.46.

On to RRIRWRPPRLPRPRPRPIVPPRP, for which the “shrunken log2 fold change” value is 0.138.

In the case of RRIRLRPPRLPRPRPRPVNDPRP, the “shrunken log2 fold change” value is -0.52.

RRIRGRPPRLPRPRPRPSDPPRP: the “shrunken log2 fold change” value worked out at 0.261.

As for RRIRCRPPRLPRPRPRPQLMPRP, the “shrunken log2 fold change” value amounted to 0.285.

RRIRERPPRLPRPRPRPYELPRP: the “shrunken log2 fold change” value was -0.563.

For RRIRTRPPRLPRPRPRPFSTPRP, the “shrunken log2 fold change” value is -0.0812.

RRIRTRPPRLPRPRPRPVFAPRP: the “shrunken log2 fold change” value was determined as 0.214.

With RRIRGRPPRLPRPRPRPMELPRP, the “shrunken log2 fold change” value stood at 0.271.

Turning to RRIRVRPPRLPRPRPRPGAAPRP, the “shrunken log2 fold change” value was 0.653.

In the case of RRIRSRPPRLPRPRPRPTGDPRP, the “shrunken log2 fold change” value turned out to be 0.353.

Consider RRIRSRPPRLPRPRPRPDDSPRP, for which the “shrunken log2 fold change” value was -0.237.

Consider RRIRNRPPRLPRPRPRPNMKPRP, for which the “shrunken log2 fold change” value is -0.48.

As to RRIRSRPPRLPRPRPRPMSPPRP, the “shrunken log2 fold change” value was -0.125.

Turning to RRIRFRPPRLPRPRPRPEEPPRP, the “shrunken log2 fold change” value came to 0.248.

Take RRIRCRPPRLPRPRPRPFWGPRP: the “shrunken log2 fold change” value is 0.0697.

For RRIRDRPPRLPRPRPRPIQRPRP, the “shrunken log2 fold change” value is -0.01.

With RRIRARPPRLPRPRPRPHVKPRP, the “shrunken log2 fold change” value was -0.289.

As for RRIRVRPPRLPRPRPRPGHLPRP, the “shrunken log2 fold change” value was -0.185.

As for RRIRHRPPRLPRPRPRPFIGPRP, the “shrunken log2 fold change” value was -0.231.

For RRIRYRPPRLPRPRPRPMQSPRP, the “shrunken log2 fold change” value came out at 2.85.

Consider RRIRRRPPRLPRPRPRPMIWPRP, for which the “shrunken log2 fold change” value stood at 0.0834.

As to RRIRVRPPRLPRPRPRPGYKPRP, the “shrunken log2 fold change” value is -0.222.

Turning to RRIRRRPPRLPRPRPRPECMPRP, the “shrunken log2 fold change” value stood at 0.921.

Turning to RRIRERPPRLPRPRPRPAFIPRP, the “shrunken log2 fold change” value is -0.012.

Consider RRIRKRPPRLPRPRPRPHMIPRP, for which the “shrunken log2 fold change” value is -0.335.

In the case of RRIRLRPPRLPRPRPRPFMYPRP, the “shrunken log2 fold change” value is -1.5.

In the case of RRIRDRPPRLPRPRPRPCMVPRP, the “shrunken log2 fold change” value is 0.0359.

Take RRIRERPPRLPRPRPRPPFEPRP: the “shrunken log2 fold change” value is 0.363.

Take RRIRWRPPRLPRPRPRPYMMPRP: the “shrunken log2 fold change” value was -0.842.

With RRIRFRPPRLPRPRPRPHFQPRP, the “shrunken log2 fold change” value is -0.261.

On to RRIRWRPPRLPRPRPRPPPPPRP, for which the “shrunken log2 fold change” value was 0.958.

On to RRIRFRPPRLPRPRPRPSPEPRP, for which the “shrunken log2 fold change” value is 0.24.

In the case of RRIRVRPPRLPRPRPRPDISPRP, the “shrunken log2 fold change” value was -0.0643.

Regarding RRIRVRPPRLPRPRPRPDWYPRP, the “shrunken log2 fold change” value is -0.0357.

For RRIRWRPPRLPRPRPRPGHKPRP, the “shrunken log2 fold change” value is -0.14.
